Target: VC-Vam7 (yeast) (UniProt P32912)
Assay: split reporter

Sequence of UniProt P32912 (P32912 whole entry): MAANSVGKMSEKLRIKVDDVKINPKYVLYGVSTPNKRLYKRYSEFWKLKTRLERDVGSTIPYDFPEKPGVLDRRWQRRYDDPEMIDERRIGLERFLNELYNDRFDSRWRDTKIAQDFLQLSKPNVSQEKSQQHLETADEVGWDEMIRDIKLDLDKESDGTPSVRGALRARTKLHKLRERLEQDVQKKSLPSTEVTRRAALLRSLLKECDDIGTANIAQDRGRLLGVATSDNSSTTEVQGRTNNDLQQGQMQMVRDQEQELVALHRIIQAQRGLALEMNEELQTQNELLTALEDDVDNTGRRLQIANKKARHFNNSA

percent of cells with a vYFP signal: > 90 % of cells
Substance: VN-Atg11 (from UniProt Q12527 1-1178) (natural protein)
